# Results reported in the DeepSol protein solubility set.
# Assay: soluble on expression in E. coli; label from the status in PepcDB or PDB records
row,Sequence,soluble on expression in E. coli
1,MGSDKIHHHHHHMEKILDLLMSFVKEDEGKLDLASFPLRNTTAGAHLLLKTENVVASGIEVSRMFLEKMGLLSKFNVEDGEYLEGTGVIGEIEGNTYKLLVAERTLLNVLSVMFSVATTTRRFAEKLKHAKIAATRKILPGLGVLQKIAVVHGGGDPHRLDLSGCVMIKDNHLKMYGSAERAVQEVRKIIPFTTKIEVEVENLEDALRAVEAGADIVMLDNLSPEEVKDISRRIKDINPNVIVEVSGGITEENVSLYDFETVDVISSSRLTLQEVFVDLSLEIQR,soluble
2,MKWTGEDVALYERERDYIDTALLPLLPVAFGQGAKRLASGGELVGLIAAEVERQLKGRLFLMPSFVYFADEPRALLTERLADWTNRLRREGMKHLFYVTCDRAWQEGEEADRVWFVPVVPLESMGESYKHELVREQAAELLRFLIGRWAQE,not soluble
3,MGSDKIHHHHHHMKRLITTGAAFLLAATLSACNGNNTSETQGDRTEQAETVQADLFSADSAYTFVQRQVNFGPRIPGTAPHRACGDWLVATLRSFGAAVQEQTAEIKAHDGTMLPMRNIIASYRPEATGRMLLMAHWDTRPVCDQDANPAMHTETFDGADDGGSGVGVLLEIARYLGQQKDLGMGIDIVFFDTEDYGSYGDDESWCLGSQYWSRNPHVAGYKAEAGILLDMVGAKGATFYWEYFSKSYAPGLISAVWQTAAALGYGNYFIQADGGALTDDHVPVIKNLGIPCIDIINYSSKNEHGFGDHWHTQRDNMQIIDKNVLDAVGETVIRYLDEQVKAASH,not soluble
4,MSLLMTLVDEIKNRSSHVDAAIDELLPVTRPEELYKASRYLVDAGGKRLRPAVLILAAEAVGSNLRSVLPAAVAVELVHNFTLIHDDIMDRDDIRRGMPAVHVKWGEAGAILAGDTLYSKAFEILSKVENEPVRVLKCMDVLSKTCTEICEGQWLDMDFETRKKVTESEYLEMVEKKTSVLYAAAAKIGALLGGASDEVAEALSEYGRLIGIGFQMYDDVLDMTAPEEVLGKVRGSDLMEGKYTLIVINAFEKGVKLDIFGKGEATLEETEAAVRTLTECGSLDYVKNLAISYIEEGKEKLDVLRDCPEKTLLLQIADYMISREYEGHHHHHH,soluble
5,MAHHHHHHMKGVIFCLVVLLWRQAWVSSKSHKCDFTKEKYLLSGEKEVSCEIDANPSDDITFICPNKIDSLCFHTVNISKNINQNKSTMSIQDLLYGSVVYGNTLFISPYVRTNTPFYCFCNLDTVTIQKFLKINRFLKDDDELSEADVMKHLKGGNVSEAQADEYLNKALNRFKKMKDLSKFFNDQADNTTKLNLPKSLNIPNDILNYDVYNSSNNRNDIVVKDEVTNKQIISKRGIMSVFVRSNNNVIKGCDFGNNNKNYFSHPISVAGKVNNKVCKIQGKPGELVGFKCAFEENGKVEPPNCFDQVLHKNKVTDLKTLIPGYASYTNKHSSKYPYYLKIPHFVNEQYTIQCKCKSNNSQNEYTFELDIQPGESEVVLNSFKTS,not soluble
6,MGFFDDKQDFLEETFAKYPPEGRRAAIMPLLRRVQQEEGWIRPERIEEIARLVGTTPTEVMGVASFYSYYQFVPTGKYHLQVCATLSCKLAGAEELWDYLTETLGIGPGEVTPDGLFSVQKVECLGSCHTAPVIQVNDEPYVECVTRARLEALLAGLRAGKRLEEIELPGKCGHHVHEVEVLEHHHHHH,soluble
7,MRAVLGGEDDGGVGLRVIDNNEVSHGISVNFDGEITYHEQDGYPDDPSERTRAGNIHVNQARRFAKYWVYRKRGYDTIPPTENPDRIIAAAIALTPLEPETAETHLGDFYQHFQSINGTADSPVEMPEGVPEQGGGTVYQKDIYVGLEDETLGTIAADLLADPKLMELVGKSVGVGGESLVGAEYVPTFKELIAEASDRDSDSLPSLSEGLLLEATSGIHVHWDDPPGEYHTQWGDQPDLGRDPAARIEIFPFEPDSITELQAQVARHLLCQIRDCYLTMGIAPPEQFRILGHGRHEATGLYASYDIYDEYFDPNAEIDTWYVENTPEGAYEHEPANKNVQTKA,not soluble
8,MGSDKIHHHHHHMNYPSLVWHLKRTELFADFELAELEQVAATTPYRSYQPGEVIYRMDDPADALYFVRSGLVKISKLFPNGKEAILGVVGQHDTFGELLLQPEERRPTQAEALERTTLIVLPRQELQKLLSTKPDLAMKLIRLMAARLFEAQAWTATVSAYSAPERVASLLYRLAREFGRPHSQGVELNLKLNQEDIARMVGATRETVSHSLSRLKKGGAIVRARSPIIVQMDALKAFIDQEH,not soluble
9,MLPDPPRDPFNNLDPAQTVRVLPRHLAGPGQADLETIWAFPFDDGWHLHQGLEGMVFAISPCARLWTRFAPKPEERGADTWTIGMDRAPFGPRAWEITFDATTPAELLRDVHTELLDLYLEDRHSEKNHLVEDPTAPHEVYTPLLTHGWSHSVKTDGTQTFLPPEGLGGVRHRYATTGSDGPVWRAWGGYPSAPHWQAQFSAGAPTTLAAAFTASLISTEPLHRAVKQIPFHTRRHLYVAPAAAPQPPSHLPPAPPSAPHPAGRARLEHHHHHH,soluble
10,MLLSGERIDQLYADDIQIIQSKEVFSFSIDAVLLANFPQLPKKGKIVDLCAGNGAVGLFVSRKTAAKIDQIELQPRLADMGQRSILLNKLEKQVTMYERDLKQATEVIKKDSVDLVLCNPPYFKERPTSQKNPNPHLAIARHEIHTSLQEVVTVSADLLKTNGRLAMVHRPDRFLDILHAMENANIAPKKARFVYPKPGKEANVLLIEGIKQGKKDGFRVLPPLFTYNEKNEYEAEMKAMLYGE,not soluble
11,MTDSKYFTTTKKGEIFELKNELNSDKKEKKKEAVKKVIASMTVGKDVSALFPDVVNCMQTDNVELKKLVYLYLMNYAKSQPDLAIMAVNTFVKDCEDPNPLIRALAVRTMGCIRVEKITEYLCDPLRRCMKDEDPYVRKTAAVCVAKLHDMNPALVKEQGFVELLNDLLSDANPMVVANAVAALTEMNEQQTVIEVNSQMVNKLLTALNECTEWGQVFILDALAGYTPRDERETQNICERISPRLAHANAAVVLSTVKVLMKLIDMMPADSDFITQLTKKLAPPMVTLLSAEPEIQYVALRNINLIVQKRPDILKQEMKVFFVKYNDPIYVKMEKLDIMIRLAQQNNIAQVLSELKEYATEVDVDFVRKSVRAIGRCAIKVEASSERCVQTLLELIQTKVNYVVQEAVVVIKDIFRKYPNRYESIISALCENLDTLDEPEARASMIWIIGEYAERIDNADELLESFVEGFHDENTQVQLQLLTAVVKLFLKRPGVAQALVQRVLSLATQDSDNPDLRDRGFIYWRLLSADPAAAKNVVLTEKPLISEETDLLEPSLLEQLVCHIGTLASVYHKPPSAFIDPAKAPLRQINPIPAAKFGSSLLDTSSTPNAARNGSAAAPTVIPSQDQVIADLLSLDLNAPAASANTGAFGGAMSGTTSMGGLDDLLGLGGDPMPAAPTNSASYNPFDGLGGLGGAAPAAPPSQQPASIGGLAEIFGSGGFGGSSGITYPKELWLDASKAMGMQVEGTFVRRGGKIFMEMTITNRAMQAISGFALQFNKNSFGLIPVEQVNPAPILPNQSQNYTIACDTTGAVQVTTPLTNLQVSCSL,not soluble
12,MSLSFKNNLKLLLSTQNVLIYILNSEEERLEYKIHLMIRQNIKKTIYCWNFIDGYYNNPNYLNKAIRNPLQAIEFIEQLNFPTSTIFFLKDFHVFINDISVIRKIKNLSRFLKQANSSIIISASEMQVPSLLKDFITVLEFPLPNYEEINLELHRLFKIMNVDSSIYSEYFHDLTLAYRGFSIEKIRISIAKLLTSNLSSTHLIKNILYEKRQLIEQTDEGHHHHHH,not soluble
13,MGVMKGIEFSESKLKEILDQLPIEAQSAFAASCAQRIFTCYVEYARVAKSKKVDLDAYSEAISYVWNAVIAGNHDAIILNGLLERCMAVLPSEEDAWESGTPYAEDAAAAIIYSLRSLASGCPQEAIWAAKRVYEAVDNFVVNTYNVNTNATDGEKFILDHPIVSNELSRQLRDLNEIINSKRDSESLKKTIKIIMERSKSESNDLFSEAT,not soluble
14,MALELSRLPELLSRIDGYKGQPVTRLAVMLNLLVFIRSSELRYARWSEIDIDNSMWTIPAEREPLPGVKFSHRGSKMRTPHLVPLSKQVVAILAELQTWAGENGLIFTGAHDPRKPISENTVNKALRVMGYDTTQEVCGHGFRAMACSALIESGLWSRDAVERQMSHQERNGVRAAYIHKAEHLEERRLMLQWWADFLDANREKGISPFEYAKINNPLKLEHHHHHH,soluble
15,MKPTLFLLAAGMGSRYGGLKQLDGLGPNGETIMDYSIYDAINAGFGKLVFVIRKDFEQDFREKIISKYEGHIPCELVFQSIDDLPEGFTCPADRTKPWGTNHAVMMGADVISEPFAVINCDDFYGRDSFQVMGKFLSALPENSKNVYSMVGFRVGNTLSESGTVSRGICSTDANNLLTSVVERTKIQRLDGEVKYIDDNGEWTATPDTTPVSMNFWGFTPDYFAYSEEFFKTFLSDPKNMENLKSEFFIPLMVDKLINDGTATVEVLDTTSKWFGVTYPEDRQSVVDKIQALVDAGEYPAKLF,not soluble
16,MHHHSHHHHSHMDVTIQHPWFKRTLGPFYPSRLFDQFFGEGLFEYDLLPFLSSTISPYYRQSLFRTVLDSGISEVRSDRDKFVIFLDVKHFSPEDLTVKVQDDFVEIHGKHNERQDDHGYISREFHRRYRLPSNVDQSALSCSLSADGMLTFCGPKIQTGLDATHAERAIPVSREEKPTSAPSSLEIRLLLEIRLL,soluble
17,MGSDKIHHHHHHMEIPPEILQSLIELGFTKYEVLTYWTLLVYGPSTAKEISIRSGIPYNRVYDTISSLKVRGFVTEIEGNPKVYAAYSPRIAFLRFKKELDEISEKLEKAISEVKREERCRPSIWRSHDFEEAIEMFKETLESSENEVIVVTPSEFFKSIRETLIGILDRGVTLSLYIDKVPDISDFEGRGNFFLRRFTKFNHLIGLADGKVVATIQNVSFMPPSPPSFKSTFKEIIFSQYSLTLEIFKESSLEVEQIMNPQDIRFFAVFHAADFVKRHLPSSTIFSEIVGRNVKTGEVEKLYGKVVGYTLSFREGVNNIQIETEKGIVKVGGMFAVIEDYESTNVRLMLES,not soluble
18,MGGMHAHVILAAGQGTRMRSRLPKVLHPLLGKPMLLYALEAALALKPERLVVVVGHGGEKVVEALEGYPVEVAWQKEQLGTAHALLQAEGLLRDFPGPFLVTQGDTPLLSPRTLEALLRRVREGAGMALLTAELPDPTGYGRILREGEEVLGNVEEKDAPPEVRAIREVNAGAYAFDGFLFQALKEVRNENAAREYYLPDLIAIYRAHGRRVLAVRGVAEEALGVNTREELARVEGVLLRRLRAEWMGKGVRMILPETIYLEPSVELAPDVTLWPGAVLKGKTRIGEGCEVGPYAVLEDTVLEPGAKVLAHTVAQGAHLHPGASAGPFARLRPGAVLMEEVHVGNFVEVKNSLLHKGVKAGHLAYLGDAEVGEGTNIGAGVITANYDGKRKHKTEIGKKAFIGSNSVLVAPVRVGDRALVGAGSVITQDVPEGALAVARERQKNLEGYALRKLGEG,soluble
19,MVVEVDSMPAASSVKKPFGLRSKMGKWCCRCFPCYRESGKSNVGTSGDHDDSAMKTLRSKMGKWCHHCFPCCRGSGKSNVGASGDHDDSAMKTLRNKMGKWCCHCFPCCRGSGKSKVGAWGDYDDSAFMEPRYHVRGEDLDKLHRAAWWGKVPRKDLIVMLRDTDVNKKDKQKRTALHLASANGNSEVVKLLLDRRCQLNVLDNKKRTALIKVCSSQLYQHEAVQCQEDECALMLLEHGTDPNIPDEYGNTTLHYAIYNEDKLMAKALLLYGADIESKNKHGLTPLLLGVHEQKQQVVKFLIKKKANLNALDRYGRTALILAVCCGSASIVSLLLEQNIDVSSQDLSGQTAREYAVSSHHHVICQLLSDYKEKQMLKISSENSNPENVSRTRNK,not soluble
20,MIKLSSITAHILDIWHRRNSRSYIAHLRSLGIRIGDGCIFRDPLTTRIDVSRPALVSIGSNVDMNTYFQILTHDWASFVFRNKYHDFVNSSGRVEIGSNIYIGTNVIVLRGVTIGDNCVIGAGSVVTHDIPANSVAVGAPCRVVCSLEHHHHHH,soluble
